B2: Cdc11-capped septin hetero-octamers (Cdc11-Cdc12-Cdc3-Cdc10-Cdc10-Cdc3-Cdc12-Cdc11) (complex)
chain 1: MSGIIDASSALRKRKHLKRGITFTVMIVGQSGSGRSTFINTLCGQQVVDTSTTILLPTDTSTEIDLQLREETVELEDDEGVKIQLNIIDTPGFGDSLDNSPSFEIISDYIRHQYDEILLEESRVRRNPRFKDGRVHCCLYLINPTGHGLKEIDVEFIRQLGSLVNIIPVISKSDSLTRDELKLNKKLIMEDIDRWNLPIYNFPFDEDEISDEDYETNMYLRTLLPFAIIGSNEVYEMGGDVGTIRGRKYPWGILDVEDSSISDFVILRNALLISHLHDLKNYTHEILYERYRTEALSGESVAAESIRPNLTKLNGSSSSSTTTRRNTNPFKQSNNINNDVLNPASDMHGQSTGENNETYMTREEQIRLEEERLKAFEERVQQELLLKRQELLQREKELREIEARLEKEAKIKQEE
chain 2: MSAATATAAPVPPPVGISNLPNQRYKIVNEEGGTFTVMLCGESGLGKTTFINTLFQTVLKRADGQQHRQEPIRKTVEIDITRALLEEKHFELRVNVIDTPGFGDNVNNNKAWQPLVDFIDDQHDSYMRQEQQPYRTKKFDLRVHAVLYFIRPTGHGLKPIDIETMKRLSTRANLIPVIAKADTLTAQELQQFKSRIRQVIEAQEIRIFTPPLDADSKEDAKSGSNPDSAAVEHARQLIEAMPFAIVGSEKKFDNGQGTQVVARKYPWGLVEIENDSHCDFRKLRALLLRTYLLDLISTTQEMHYETYRRLRLEGHENTGEGNEDFTLPAIAPARKLSHNPRYKEEENALKKYFTDQVKAEEQRFRQWEQNIVNERIRLNGDLEEIQGKVKKLEEQVKSLQVKKSHLK
chain 3: MSLKEEQVSIKQDPEQEERQHDQFNDVQIKQESQDHDGVDSQYTNGTQNDDSERFEAAESDVKVEPGLGMGITSSQSEKGQVLPDQPEIKFIRRQINGYVGFANLPKQWHRRSIKNGFSFNLLCVGPDGIGKTTLMKTLFNNDDIEANLVKDYEEELANDQEEEEGQGEGHENQSQEQRHKVKIKSYESVIEENGVKLNLNVIDTEGFGDFLNNDQKSWDPIIKEIDSRFDQYLDAENKINRHSINDKRIHACLYFIEPTGHYLKPLDLKFMQSVYEKCNLIPVIAKSDILTDEEILSFKKTIMNQLIQSNIELFKPPIYSNDDAENSHLSERLFSSLPYAVIGSNDIVENYSGNQVRGRSYPWGVIEVDNDNHSDFNLLKNLLIKQFMEELKERTSKILYENYRSSKLAKLGIKQDNSVFKEFDPISKQQEEKTLHEAKLAKLEIEMKTVFQQKVSEKEKKLQKSETELFARHKEMKEKLTKQLKALEDKKKQLELSINSASPNVNHSPVPTKKKGFLR
chain 4: MDPLSSVQPASYVGFDTITNQIEHRLLKKGFQFNIMVVGQSGLGKSTLINTLFASHLIDSATGDDISALPVTKTTEMKISTHTLVEDRVRLNINVIDTPGFGDFIDNSKAWEPIVKYIKEQHSQYLRKELTAQRERFITDTRVHAILYFLQPNGKELSRLDVEALKRLTEIANVIPVIGKSDTLTLDERTEFRELIQNEFEKYNFKIYPYDSEELTDEELELNRSVRSIIPFAVVGSENEIEINGETFRGRKTRWSAINVEDINQCDFVYLREFLIRTHLQDLIETTSYIHYEGFRARQLIALKENANSRSSAHMSSNAIQR

The target of data set [1] is B2. As to the kind of experiment: co-sedimentation.
Data set [2] deals with the molecule itself. Description: co-sedimentation.

B1: His6-MBP-Hsl1(611–950) fusion protein (domain or fragment)
chain: RETVHDNEMPLPQLPKSPSRYSLSRRAIHASPSTKSIHKSLSRKNIAATVAARRTLQNSASKRSLYSLQSISKRSLNLNDLLVFDDPLPSKKPASENVNKSEPHSLESDSDFEILCDQILFGNALDRILEEEEDNEKERDTQRQRQNDTKSSADTFTISGVSTNKENEGPEYPTKIEKNQFNMSYKPSENMSGLSSFPIFEKENTLSSSYLEEQKPKRAALSDITNSFNKMNKQEGMRIEKKIQREQLQKKNDRPSPLKPIQHQELRVNSLPNDQGKPSLSLDPRRNISQPVNSKVESLLQGLKFKKEPASHWTHERGSLFMSEHVEDEKPVKASDVSIE
Regarding B1, the binding result in data set [1] was “binds”.
As for B2, in data set [2], the binding result is recorded as “binds”.

The values are drawn from article PMC4945140 (Molecular Biology of the Cell, 2016).
